From patent publication US20240010684A1 (Bayer, published 2024)
Bridges are numbered along the chain shown (N, C = ends). [ ]: non-standard residue; d: D form. Oic = O=C(O)[C@@H]1C[C@@H]2CCCC[C@@H]2N1; tBuAla = CC(C)(C)C[C@H](N)C(=O)O; Pen = CC(C)(S)[C@H](N)C(=O)O; NMeC = CN[C@@H](CS)C(=O)O; Dap = NC[C@H](N)C(=O)O; PEG2 = NCCOCCOCCC(=O)O; Ahx = NCCCCCC(=O)O; GABA = NCCCC(=O)O; Sar = CNCC(=O)O

T1: recombinant human MASP1 (amino acids 297-699, C-terminal His Tag) (human, UniProt P48740 297-699)
T1 sequence: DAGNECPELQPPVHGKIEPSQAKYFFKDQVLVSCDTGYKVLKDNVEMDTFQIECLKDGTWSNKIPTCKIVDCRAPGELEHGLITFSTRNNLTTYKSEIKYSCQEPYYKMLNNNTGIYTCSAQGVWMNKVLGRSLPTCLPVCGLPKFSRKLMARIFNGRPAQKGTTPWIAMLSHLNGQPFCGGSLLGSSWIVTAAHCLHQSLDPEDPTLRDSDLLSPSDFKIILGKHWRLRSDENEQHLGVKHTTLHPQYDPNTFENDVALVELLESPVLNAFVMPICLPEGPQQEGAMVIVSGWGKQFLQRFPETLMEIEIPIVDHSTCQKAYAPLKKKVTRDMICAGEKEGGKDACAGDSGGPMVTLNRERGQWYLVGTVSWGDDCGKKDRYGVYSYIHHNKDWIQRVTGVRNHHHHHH

T2: recombinant rat MASP1 (amino acids 302-704, C-terminal His Tag) (rat, UniProt Q8CHN8 302-704)
T2 sequence: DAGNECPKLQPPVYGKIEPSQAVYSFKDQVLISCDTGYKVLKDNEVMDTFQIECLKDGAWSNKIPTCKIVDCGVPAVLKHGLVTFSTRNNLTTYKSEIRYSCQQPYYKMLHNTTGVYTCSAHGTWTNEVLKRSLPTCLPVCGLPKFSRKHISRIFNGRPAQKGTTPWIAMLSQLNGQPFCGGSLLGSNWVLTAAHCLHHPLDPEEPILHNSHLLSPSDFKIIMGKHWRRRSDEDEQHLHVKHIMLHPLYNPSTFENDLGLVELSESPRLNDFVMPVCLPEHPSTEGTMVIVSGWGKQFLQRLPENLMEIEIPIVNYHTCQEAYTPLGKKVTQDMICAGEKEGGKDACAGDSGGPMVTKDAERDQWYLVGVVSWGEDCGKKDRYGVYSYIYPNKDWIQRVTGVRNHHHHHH

B1: Example 55: (Dap)**-IC+SRS-((tBu)A)-PPI-(Pen)+-IP** (peptide)
peptide: cyclo([Dap]ICSRS[tBuAla]PPI[Pen]IP)
modifications: disulfide 3-11; also: TFA salt
B2: Example 42: A**GGIC+SRSLP-(Oic)-I-(Pen)+-IPD++-NH2 (peptide)
peptide: AGGICSRSLP[Oic]I[Pen]IPD-NH2
modifications: disulfide 5-13; lactam N-16; also: TFA salt
B3: Example 29: A**GGIC+SRS-((tBu)A)-PPI-(Pen)+-IPD** (peptide)
peptide: cyclo(AGGICSRS[tBuAla]PPI[Pen]IPD)
modifications: disulfide 5-13; also: TFA salt
B4: Example 43: (Ahx)**AIC+SRSLP-(Oic)-I-(Pen)+-IPD++-NH2 (peptide)
peptide: [Ahx]AICSRSLP[Oic]I[Pen]IPD-NH2
modifications: disulfide 4-12; lactam N-15; also: TFA salt
B5: Example 57: (Dap)**-(Dap)-IC+SRS-((tBu)A)-PPI-(Pen)+-I** (peptide)
peptide: cyclo([Dap][Dap]ICSRS[tBuAla]PPI[Pen]I)
modifications: disulfide 4-12; also: TFA salt
B6: Example 26: A**GAIC+SRS-((tBu)A)-PPI-(Pen)+-IPD** (peptide)
peptide: cyclo(AGAICSRS[tBuAla]PPI[Pen]IPD)
modifications: disulfide 5-13; also: TFA salt
B7: Example 64: (Ahx)**-((N-Me)G)-IC+SRS-((tBu)A)-PPI-(Pen)+-I** (peptide)
peptide: cyclo([Ahx][Sar]ICSRS[tBuAla]PPI[Pen]I)
modifications: disulfide 4-12; also: TFA salt
B8: Example 13: (Ahx)**-GIC+SRSLPPIC+IPD** (peptide)
peptide: cyclo([Ahx]GICSRSLPPICIPD)
modifications: disulfide 4-12; also: TFA salt
B9: Example 41: A**GAIC+SRSLP-(Oic)-I-(Pen)+-IPD++-NH2 (peptide)
peptide: AGAICSRSLP[Oic]I[Pen]IPD-NH2
modifications: disulfide 5-13; lactam N-16; also: TFA salt
B10: Example 45: (Ahx)**-AIC+SRSLPPIC+IPD** (peptide)
peptide: cyclo([Ahx]AICSRSLPPICIPD)
modifications: disulfide 4-12; also: TFA salt
B11: Example 34: (PEG1(10 atoms))**-AIC+SRS-((tBu)A)-PPI-(Pen)+-IPD** (peptide)
peptide: cyclo([PEG2]AICSRS[tBuAla]PPI[Pen]IPD)
modifications: disulfide 4-12; also: TFA salt
B12: Example 32: (Ahx)**-AIC+SRS-((tBu)A)-PPI-((N-Me)C)+-IPD** (peptide)
peptide: cyclo([Ahx]AICSRS[tBuAla]PPI[NMeC]IPD)
modifications: disulfide 4-12; also: TFA salt
B13: Example 48: (Ahx)**-GIC+SRS-((tBu)A)-PPI-(Pen)+-IPD++-NH2 (peptide)
peptide: [Ahx]GICSRS[tBuAla]PPI[Pen]IPD-NH2
modifications: disulfide 4-12; lactam N-15; also: TFA salt
B14: Example 35: (Gamma-Abu)**-IC+SRS-((tBu)A)-PPI-(Pen)+-IPD** (peptide)
peptide: cyclo([GABA]ICSRS[tBuAla]PPI[Pen]IPD)
modifications: disulfide 3-11; also: TFA salt

These binders were tested against recombinant human MASP2 (amino acids 297-686, C-terminal His Tag) (human, UniProt O00187 297-686) (assay: cell-based or functional assay).
recombinant human MASP2 (amino acids 297-686, C-terminal His Tag), sequence (O00187 other isoform, or with tags, fused parts or gaps limits assumed): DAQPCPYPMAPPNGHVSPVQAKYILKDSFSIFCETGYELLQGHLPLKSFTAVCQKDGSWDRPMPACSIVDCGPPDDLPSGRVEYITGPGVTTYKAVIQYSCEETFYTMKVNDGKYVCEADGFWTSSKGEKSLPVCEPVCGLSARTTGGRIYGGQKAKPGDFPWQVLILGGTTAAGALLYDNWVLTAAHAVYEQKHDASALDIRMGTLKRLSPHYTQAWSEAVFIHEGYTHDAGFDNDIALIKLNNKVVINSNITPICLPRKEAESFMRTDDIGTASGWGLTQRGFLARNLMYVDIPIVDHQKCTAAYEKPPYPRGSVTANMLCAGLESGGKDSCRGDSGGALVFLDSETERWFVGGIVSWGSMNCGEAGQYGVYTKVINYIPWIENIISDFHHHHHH

| human MASP2 IC50 | Binder |
| --- | --- |
| 900 nM | B1 |
| 200 nM | B2 |
| 68 nM | B3 |
| 120 nM | B4 |
| 340 nM | B5 |
| 170 nM | B6 |
| 12 nM | B7 |
| 130 nM | B8 |
| 190 nM | B9 |
| 74 nM | B10 |
| 98 nM | B11 |
| 63.5 nM | B12 |
| 70 nM | B13 |

What follows are binders tested against T1, recombinant human MASP1 (amino acids …) (assay: cell-based or functional assay).

| human MASP1 IC50 | Binder |
| --- | --- |
| 46 nM | B1 |
| 13 nM | B2 |
| 4.1 nM | B14 |
| 8.6 nM | B3 |
| 6.7 nM | B4 |
| 46 nM | B5 |
| 12 nM | B6 |
| 9.4 nM | B7 |
| 140 nM | B8 |
| 5.9 nM | B9 |
| 92 nM | B10 |
| 11 nM | B11 |
| 22 nM | B12 |
| 10 nM | B13 |

These binders were tested against T2, recombinant rat MASP1 (amino acids …) (assay: cell-based or functional assay).

| rat MASP1 IC50 | Binder |
| --- | --- |
| 63 nM | B14 |
| 157 nM | B7 |

Each binder was assayed against recombinant rat MASP2 (amino acids 296-685, C-terminal His Tag) (rat, UniProt Q9JJS8 296-685) (assay: cell-based or functional assay).
recombinant rat MASP2 (amino acids 296-685, C-terminal His Tag), sequence (Q9JJS8 other isoform, or with tags, fused parts or gaps limits assumed): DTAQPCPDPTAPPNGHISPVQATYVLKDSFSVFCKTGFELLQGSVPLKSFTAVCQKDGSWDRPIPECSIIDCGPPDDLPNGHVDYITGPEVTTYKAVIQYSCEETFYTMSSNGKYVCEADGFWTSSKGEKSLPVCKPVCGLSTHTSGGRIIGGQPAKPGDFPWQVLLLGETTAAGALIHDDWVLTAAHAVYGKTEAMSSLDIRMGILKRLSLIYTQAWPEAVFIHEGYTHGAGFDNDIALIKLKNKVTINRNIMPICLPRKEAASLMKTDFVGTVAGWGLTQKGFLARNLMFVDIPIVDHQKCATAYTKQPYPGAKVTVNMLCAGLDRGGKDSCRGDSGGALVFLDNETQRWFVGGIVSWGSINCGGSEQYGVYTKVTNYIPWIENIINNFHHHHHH

| rat MASP2 IC50 | Binder |
| --- | --- |
| 24 nM | B14 |
| 13 nM | B7 |
